Nine substances from patent US8900593B2 (Indiana University Research and Technology Corporation, priority 2007, dated 2014) can be followed below.

One assay concerns the target T1, GLP-1 receptor (Homo sapiens, UniProt P43220).
T1 construct: expressed in transfected cells; host or cells: HEK293
The experiment in a line: Functional assay-cAMP synthesis, luciferase reporter in HEK293 cells co-transfected with GLP-1 receptor. Format: cell-based. (A reporter such as luciferase makes a cellular process visible.)

Another assay has as its target T2, glucagon receptor (Homo sapiens, UniProt P47871).
T2 construct: expressed in transfected cells; host or cells: HEK293
Briefly: Functional assay-cAMP synthesis, luciferase reporter in HEK293 cells co-transfected with glucagon receptor. As to conditions: for Parent w/PEG % Potency Relative to Native GR / Parent w/o PEG % Potency Relative to Native GR: Table 12; for Parent w/PEG % Potency Relative to Native GR: pegylated peptide; for Parent w/o PEG % Potency Relative to Native GR: peptide without PEG. Format: cell-based.

Like-named read-outs stand apart in the source and are kept apart here. Where no end group is shown, it is not given here. [ ]: non-standard residue; d: D form. DMIA = not defined here; PEG = not defined here; Aib = CC(C)(N)C(=O)O

T1 sequence (P43220 24-463, species assumed): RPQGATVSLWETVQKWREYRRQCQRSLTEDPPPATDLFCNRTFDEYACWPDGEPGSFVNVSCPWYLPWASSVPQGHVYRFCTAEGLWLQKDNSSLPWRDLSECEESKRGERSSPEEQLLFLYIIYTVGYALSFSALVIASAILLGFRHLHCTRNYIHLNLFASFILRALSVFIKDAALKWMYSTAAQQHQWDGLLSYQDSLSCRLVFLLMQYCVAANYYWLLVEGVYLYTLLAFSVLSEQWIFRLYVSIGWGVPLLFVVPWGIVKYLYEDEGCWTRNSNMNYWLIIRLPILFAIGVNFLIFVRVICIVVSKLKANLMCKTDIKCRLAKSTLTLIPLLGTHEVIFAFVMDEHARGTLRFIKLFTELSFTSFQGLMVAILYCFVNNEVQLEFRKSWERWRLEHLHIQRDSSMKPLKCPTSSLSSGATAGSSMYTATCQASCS
T2 sequence (P47871 26-477): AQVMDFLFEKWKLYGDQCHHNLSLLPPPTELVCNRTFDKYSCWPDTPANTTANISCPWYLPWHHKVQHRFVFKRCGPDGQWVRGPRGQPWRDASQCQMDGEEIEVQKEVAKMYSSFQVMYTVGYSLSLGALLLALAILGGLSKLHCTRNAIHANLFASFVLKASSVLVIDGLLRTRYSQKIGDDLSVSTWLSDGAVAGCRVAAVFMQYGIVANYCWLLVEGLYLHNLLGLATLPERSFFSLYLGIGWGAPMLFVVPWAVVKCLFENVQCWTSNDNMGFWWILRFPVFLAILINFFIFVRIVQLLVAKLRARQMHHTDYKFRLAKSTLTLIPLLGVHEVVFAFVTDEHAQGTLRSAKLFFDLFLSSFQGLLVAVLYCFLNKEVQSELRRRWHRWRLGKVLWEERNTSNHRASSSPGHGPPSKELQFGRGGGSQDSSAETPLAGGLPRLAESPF

As for “HX2QGT FTSDY SKYLD ERAAK DFVC*W LMNGG PSSGA PPPSa (H[Aib]QGTFTSDYSKYLDERAAKDFVC(PEG)WLMNGGPSSGAPPPS-NH2; reading uncertain) [X2=AIB; C* is Cys attached to PEG in the tested form]”, in the assay with GLP-1 receptor (Table 12, pegylated peptide), the “Parent w/PEG % Potency Relative to Native GLP-1R” value stood at 88.5%. Moreover, the “Parent w/PEG % Potency Relative to Native GR” value with glucagon receptor came out at 0.1%.

Take “HX2QGT FTSDY SKYLD ERRAK DFVC*W LMNTa (H[Aib]QGTFTSDYSKYLDERRAKDFVCWLMNT-NH2; lactam (positions not given here); also: optional PEG on Cys24) [X2=AIB; C* is Cys or Cys attached to PEG]”: in the assay with GLP-1 receptor, the “Parent w/PEG % Potency Relative to Native GLP-1R” value came to 31.0% and the “Parent w/o PEG % Potency Relative to Native GLP-1R” value was determined as 96.9%. In addition, in the assay with glucagon receptor, the “Parent w/PEG % Potency Relative to Native GR” value came out at 15.8% and the “Parent w/o PEG % Potency Relative to Native GR” value worked out at 108.3%.

On to “HX2QGT FTSDY SKYLD EQAAK EFIC*W LMNGG PSSGA PPPSa (H[Aib]QGTFTSDYSKYLDEQAAKEFICWLMNGGPSSGAPPPS-NH2; also: optional PEG on Cys24) [X2=AIB; C* is Cys or Cys attached to PEG]”, for which the “Parent w/PEG % Potency Relative to Native GLP-1R” value with GLP-1 receptor (Table 12, pegylated peptide) came to 95.4%. The “Parent w/o PEG % Potency Relative to Native GLP-1R” value with GLP-1 receptor (Table 12, peptide without PEG) is reported as 457.8%. Also, in the assay with glucagon receptor, the “Parent w/PEG % Potency Relative to Native GR” value is 0.2% and the “Parent w/o PEG % Potency Relative to Native GR” value was found to be 2.5%.

With X1SQGT FTSDY SKYLD EQAAK EFIC*W LMNTa, in the assay with GLP-1 receptor, the “Parent w/PEG % Potency Relative to Native GLP-1R” value was determined as 12.5% and the “Parent w/o PEG % Potency Relative to Native GLP-1R” value is 82.5%. In addition, in the assay with glucagon receptor, the “Parent w/PEG % Potency Relative to Native GR” value is 19.1% and the “Parent w/o PEG % Potency Relative to Native GR” value is given as 160.7%.

As to “X1SQGT FTSDY SKYLD ERRAK DFVC*W LMNGG PSSGA PPPSa ([DMIA]SQGTFTSDYSKYLDERRAKDFVCWLMNGGPSSGAPPPS-NH2; lactam (positions not given here); not fully specified; reading uncertain) [X1=DMIA; C* is Cys or Cys attached to PEG]”, in the assay with GLP-1 receptor, the “Parent w/PEG % Potency Relative to Native GLP-1R” value was determined as 11.3% and the “Parent w/o PEG % Potency Relative to Native GLP-1R” value was 78.3%. Moreover, in the assay with glucagon receptor, the “Parent w/PEG % Potency Relative to Native GR” value was found to be 12.6% and the “Parent w/o PEG % Potency Relative to Native GR” value turned out to be 116.0%.

On to “HX2QGT FTSDYSKYLDEQAAKEFIAWLMNGGPSSGAPPPSC*a (H[Aib]QGTFTSDYSKYLDEQAAKEFIAWLMNGGPSSGAPPPSC-NH2; lactam (positions not given here); also: optional PEG on Cys40) [X2=AIB; C* is Cys or Cys attached to PEG]”, for which, in the assay with GLP-1 receptor, the “Parent w/PEG % Potency Relative to Native GLP-1R” value came out at 63.6% and the “Parent w/o PEG % Potency Relative to Native GLP-1R” value is 169.6%. In the assay with glucagon receptor, the “Parent w/PEG % Potency Relative to Native GR” value was 3.2% and the “Parent w/o PEG % Potency Relative to Native GR” value is listed as 14.2%.

As for “HSEGTFTSDYSKYLDERRAQDFVQW LMNTa (HSEGTFTSDYSKYLDERRAQDFVQWLMNT-NH2) [E3, E16 Gluc-NH2]”, the “Percent Potency Relative to Native Ligand GLP-1Rec” value with GLP-1 receptor (Table 4, relative to native GLP-1) was 28.8%. Besides, the “Percent Potency Relative to Native Ligand GRec” value with glucagon receptor (Table 4, relative to native glucagon) is 1.6%.

On to “HSQGT FTSDYSKYLD EQAAK EFIC*W LMNTa (HSQGTFTSDYSKYLDEQAAKEFIC(PEG)WLMNT-NH2; reading uncertain) [Chimera Cys24 (SEQ ID NO: 518), C* is Cys attached to PEG in the tested form]”, for which, in the assay with GLP-1 receptor (Table 12, pegylated peptide), the “Parent w/PEG % Potency Relative to Native GLP-1R” value turned out to be 29.3%. In the assay with glucagon receptor, the “Parent w/PEG % Potency Relative to Native GR” value is 19.8%.

With “HX2QGT FTSDY SKYLD EQAAK EFIC*W LMNGG PSSGA PPPSa (H[Aib]QGTFTSDYSKYLDEQAAKEFICWLMNGGPSSGAPPPS-NH2; lactam (positions not given here); also: optional PEG on Cys24) [X2=AIB; C* is Cys or Cys attached to PEG]”, in the assay with GLP-1 receptor, the “Parent w/PEG % Potency Relative to Native GLP-1R” value is given as 96.4% and the “Parent w/o PEG % Potency Relative to Native GLP-1R” value turned out to be 381.5%. Further, in the assay with glucagon receptor, the “Parent w/PEG % Potency Relative to Native GR” value was determined as 1.4% and the “Parent w/o PEG % Potency Relative to Native GR” value is listed as 25.2%.
